Laboratory results: US20230357447A1 (JANUX THERAPEUTICS, published 2023)

B1: Phage-395 (peptide)
peptide: MDWCPKDMWAECFN
B2: Phage-401 (peptide)
peptide: MDWCPLDMWVLCFA
B3: Phage-405 (peptide)
peptide: MDWCPMSMWAFCFD
B4: Phage-409 (peptide)
peptide: LHWCPITMWTYCYY
B5: Phage-376 (peptide)
peptide: MDWCPRHLWTYCFH
B6: Phage-397 (peptide)
peptide: MDWCPRAMWDYCFY
B7: Phage-415 (peptide)
peptide: MDWCPMYMWHKCFH
B8: Phage-384 (peptide)
peptide: IMWCPTSLWNRCVT
B9: Phage-420 (peptide)
peptide: MFWCPSTMWNRCFD
B10: Phage-385 (peptide)
peptide: ILRCQMNLQDECLN
B11: Phage-402 (peptide)
peptide: MDWCPRHMWHECFH
B12: Phage-413 (peptide)
peptide: MDWCPSDMWSNCFN
B13: Phage-406 (peptide)
peptide: MNWCPIDMWTECFN
B14: Phage-373 (peptide)
peptide: MDWCPRILWSDCFN
B15: Phage-403 (peptide)
peptide: MSWCPWDMWNECFA
B16: Phage-381 (peptide)
peptide: MAWCPRILWHQCFN
B17: Phage-399 (peptide)
peptide: MDWCPRSMWDSCFN
B18: Phage-379 (peptide)
peptide: MDWCPRNLWAECFS
B19: Phage-400 (peptide)
peptide: MHWCPTYMWSECFA
B20: Phage-404 (peptide)
peptide: MDWCPRDMWTSCFN
B21: Phage-411 (peptide)
peptide: MSWCPRFMWHECFN
B22: Phage-410 (peptide)
peptide: IDWCPRYMWHECFF
B23: Phage-375 (peptide)
peptide: MNWCPRALWHECFL
B24: Phage-378 (peptide)
peptide: MHWCPLHLWNECFA
B25: Phage-382 (peptide)
peptide: ITWCPTSLWNRCLV
B26: Phage-396 (peptide)
peptide: TDWCPRDMWYLCFN
B27: Phage-394 (peptide)
peptide: MDWCPRYMWSDCFF
B28: Phage-417 (peptide)
peptide: IYWCPTAMWNRCSA
B29: Phage-422 (peptide)
peptide: MYWCPINMWDYCYA
B30: Phage-380 (peptide)
peptide: MDYCPSYLWHECFA
B31: Phage-398 (peptide)
peptide: MDWCPRNMWNECFF
B32: Phage-391 (peptide)
peptide: MDWCPFDMWADCFF
B33: Phage-407 (peptide)
peptide: MNWCPIHMWNQCFA
B34: Phage-418 (peptide)
peptide: MYWCPKYMWSECFA
B35: Phage-386 (peptide)
peptide: NHWCPTTLWNRCVA
B36: Phage-412 (peptide)
peptide: QHWCPRDMWNDCYA
B37: Phage-374 (peptide)
peptide: MAWCPLDLWDKCFY
B38: Phage-414 (peptide)
peptide: LYWCPRDMWAYCYS
B39: Phage-383 (peptide)
peptide: LAGCQRDLATVCVI
B40: Phage-393 (peptide)
peptide: MDWCPRDMWFECFN
B41: Phage-377 (peptide)
peptide: MDWCPFDLWLECFN
B42: Phage-408 (peptide)
peptide: MFWCPKDMWAECFA
B43: Phage-222 clonal phage peptide (peptide)
peptide: MDWCPRDQWHNCFN
notes: on phage (pIII fusion)
B44: Phage-226 clonal phage peptide (peptide)
peptide: MDWCPRDRWIDCFN
notes: on phage (pIII fusion)
B45: Phage-227 clonal phage peptide (peptide)
peptide: MDWCPRDRWSDCFN
notes: on phage (pIII fusion)
B46: Phage-217 clonal phage peptide (peptide)
peptide: MDWCPWDMWDKCFN
notes: on phage (pIII fusion)
B47: Phage-223 clonal phage peptide (peptide)
peptide: MDWCPRDRWVDCFF
notes: on phage (pIII fusion)
B48: Phage-225 clonal phage peptide (peptide)
peptide: MDWCPRDRWADCFF
notes: on phage (pIII fusion)
B49: Phage-219 clonal phage peptide (peptide)
peptide: NYWCPSSMWNRCLH
notes: on phage (pIII fusion)
B50: Phage-218 clonal phage peptide (peptide)
peptide: TFGCPTTMWNRCFA
notes: on phage (pIII fusion)
B51: Phage-220 clonal phage peptide (peptide)
peptide: FDFCPTTMWTYCQH
notes: on phage (pIII fusion)
B52: Phage-224 clonal phage peptide (peptide)
peptide: MDWCPKDRWNDCYF
notes: on phage (pIII fusion)
B53: Phage-228 clonal phage peptide (peptide)
peptide: ITWCHVISGLECWN
notes: on phage (pIII fusion)
B54: Phage-221 clonal phage peptide (peptide)
peptide: TTWCPTSMWLHCFD
notes: on phage (pIII fusion)

Biological target: T1, Anti-CD28 scFv (VH-linker 1-VL) (biotinylated (site not stated))
T1 construct: biotinylated and captured on neutravidin coated plates in the phage ELISA
Test: phage binding ELISA on captured biotinylated anti-CD28 scFv;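 note: crude clonal phage supernatants applied to the wells, bound phage read out with an HRP-conjugated anti-M13 antibody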

T1 sequence (scFv, as listed by the source): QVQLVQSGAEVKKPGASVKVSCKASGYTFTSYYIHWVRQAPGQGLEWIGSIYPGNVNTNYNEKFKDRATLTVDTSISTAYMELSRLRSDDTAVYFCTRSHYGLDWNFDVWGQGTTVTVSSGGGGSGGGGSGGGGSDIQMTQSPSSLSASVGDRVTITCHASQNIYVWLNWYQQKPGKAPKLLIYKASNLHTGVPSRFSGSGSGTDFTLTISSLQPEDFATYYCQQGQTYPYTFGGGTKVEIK

Row | Binder | CD28 scFv signal
1 | B1 | 2.11
2 | B2 | 1.84
3 | B3 | 1.41
4 | B4 | 1.21
5 | B5 | 0.757
6 | B6 | 2.11
7 | B7 | 0.987
8 | B8 | 0.161
9 | B9 | 0.464
10 | B10 | 0.083
11 | B11 | 1.81
12 | B12 | 1.07
13 | B13 | 1.4
14 | B14 | 0.847
15 | B15 | 1.52
16 | B16 | 0.322
17 | B17 | 2.02
18 | B18 | 0.538
19 | B19 | 1.84
20 | B20 | 1.41
21 | B21 | 1.11

Row | Binder | CD28 scFv signal
22 | B22 | 1.18
23 | B23 | 0.759
24 | B24 | 0.575
25 | B25 | 0.242
26 | B26 | 2.11
27 | B27 | 2.28
28 | B28 | 0.817
29 | B29 | 0.109
30 | B30 | 0.47
31 | B31 | 2.1
32 | B32 | 2.53
33 | B33 | 1.37
34 | B34 | 0.741
35 | B35 | 0.078
36 | B36 | 1.08
37 | B37 | 0.77
38 | B38 | 1.02
39 | B39 | 0.229
40 | B40 | 2.42
41 | B41 | 0.65
42 | B42 | 1.26

Biological target: T2, anti-CD28 scFv (VH-linker 1-VL) (biotinylated (site not stated))
T2 construct: Captured as biotinylated scFv on neutravidin coated plates in the phage ELISA
Test: phage ELISA; biotinylated scFv on neutravidin plate; anti-M13-HRP;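 note: crude clonal phage supernatant added to wells pre-incubated with soluble CD28 protein or only blocking buffer, then washed, bound phage read out with an HRP-linked anti-M13 antibody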

T2 sequence (scFv, as listed by the source): as above

Row | Binder | CD28 scFv signal
43 | B43 | 0.2
44 | B44 | 0.339
45 | B45 | 0.102
46 | B46 | 0.586
47 | B47 | 1.58
48 | B48 | 0.392
49 | B49 | 0.158
50 | B50 | 0.181
51 | B51 | 0.086
52 | B52 | 1.09
53 | B53 | 0.193
54 | B54 | 0.074

Biological target: T2, anti-CD28 scFv (VH-linker 1-VL)
Test: phage ELISA; scFv wells pre-incubated with soluble CD28 (competitor);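 note: crude clonal phage supernatants added to wells pretreated with soluble CD28 in blocking buffer, bound phage read via HRP-linked anti-M13 antibody, reference wells got blocking buffer only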
Method: (§1) Clonal phage were harvested as crude supernatants and screened via standard enzyme linked immunosorbent assays (ELISAs). […] Prior to the addition of clonal phage, wells were incubated with blocking buffer and CD28 soluble protein or blocking buffer alone. Without washing or aspirating, clonal phage supernatants were then added to the wells and incubated for a short time. Wells were then washed followed by detection of bound phage using a horse radish peroxidase conjugated anti-M13 antibody.

Row | Binder | CD28 scFv signal in presence of CD28
55 | B43 | 0.078
56 | B44 | 0.131
57 | B45 | 0.074
58 | B46 | 0.108
59 | B47 | 0.14
60 | B48 | 0.089
61 | B49 | 0.088
62 | B50 | 0.068
63 | B51 | 0.081
64 | B53 | 0.1
65 | B54 | 0.072

Biological target: T1, Anti-CD28 scFv (VH-linker 1-VL)
Test: phage binding ELISA on captured anti-CD28 scFv, wells pre-incubated with soluble CD28 (competitor);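 note: crude clonal phage supernatants added without washing, bound phage detected by HRP-conjugated anti-M13 antibody, control wells held blocking buffer alone instead of CD28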
Method: as §1

Row | Binder | CD28 scFv signal in presence of CD28
66 | B1 | 0.457
67 | B2 | 0.169
68 | B3 | 0.16
69 | B4 | 0.516
70 | B5 | 0.207
71 | B6 | 0.339
72 | B7 | 0.168
73 | B8 | 0.129
74 | B9 | 0.138
75 | B10 | 0.077
76 | B11 | 0.171
77 | B12 | 0.121
78 | B13 | 0.175
79 | B14 | 0.113
80 | B15 | 0.108
81 | B16 | 0.129
82 | B17 | 0.142
83 | B18 | 0.08
84 | B19 | 0.161
85 | B20 | 0.179
86 | B21 | 0.246

Row | Binder | CD28 scFv signal in presence of CD28
87 | B22 | 0.164
88 | B23 | 0.107
89 | B24 | 0.083
90 | B25 | 0.089
91 | B26 | 0.301
92 | B27 | 0.377
93 | B28 | 0.073
94 | B29 | 0.088
95 | B30 | 0.09
96 | B31 | 0.43
97 | B32 | 0.215
98 | B33 | 0.133
99 | B34 | 0.099
100 | B35 | 0.093
101 | B36 | 0.149
102 | B37 | 0.141
103 | B38 | 0.157
104 | B39 | 0.116
105 | B40 | 0.778
106 | B41 | 0.12
107 | B42 | 0.113
